# T1: SIP2 D1 (Plasmodium falciparum, UniProt C6KSN9 177-235)
# T1 sequence: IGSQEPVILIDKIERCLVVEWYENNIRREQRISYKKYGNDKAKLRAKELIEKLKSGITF
# B1: GTGCAC_site10484 (dsDNA)
# DNA 1: AAATTTGCTTTACCAGTGCAAAAAAAAAAAAAAAAA
# DNA 2: TTTTTTTTTTTTTTTTTGCACTGGTAAAGCAAATTT
# B2: GTGCAC_site9663 (dsDNA)
# DNA 1: AAATAGTAAGAGATGGTGCGTTTCCTTTTTTTTTTT
# DNA 2: AAAAAAAAAAAGGAAACGCACCATCTCTTACTATTT
# B3: GTGCAC_site10440 (dsDNA)
# DNA 1: TATTACACATATTATGTGCACATATATAATCAATAT
# DNA 2: ATATTGATTATATATGTGCACATAATATGTGTAATA
# B4: GTGCAC_site9718 (dsDNA)
# DNA 1: TCTTTTTGCATGTGTGTGCGCACAAAATACACAAAA
# DNA 2: TTTTGTGTATTTTGTGCGCACACACATGCAAAAAGA
# B5: GTGCAC_negctrl_site629 (dsDNA)
# DNA 1: TTGTTTTCTTTTTCTTTTCTTTTTCTTTTTTCTTTT
# DNA 2: AAAAGAAAAAAGAAAAAGAAAAGAAAAAGAAAACAA
# B6: GTGCAC_site10192 (dsDNA)
# DNA 1: ATATTATTATATATAGTGCATATTATTATTTTTATT
# DNA 2: AATAAAAATAATAATATGCACTATATATAATAATAT
# B7: GTGCAC_site10243 (dsDNA)
# DNA 1: ACATATTAAATATGAGTGCAATATATATATATATAA
# DNA 2: TTATATATATATATATTGCACTCATATTTAATATGT
# B8: GTGCAC_negctrl_site176 (dsDNA)
# DNA 1: TTTAATTAATAATAATATAAATTGTTCTTTTTTTTT
# DNA 2: AAAAAAAAAGAACAATTTATATTATTATTAATTAAA
# B9: GTGCAC_site10711 (dsDNA)
# DNA 1: TAATAAAATATGTACGTGCACATAATTATACTAAAA
# DNA 2: TTTTAGTATAATTATGTGCACGTACATATTTTATTA
# B10: GTGCAC_site10226 (dsDNA)
# DNA 1: TTTTATGCGCAATAAGTGCATTTAAAATATATATAT
# DNA 2: ATATATATATTTTAAATGCACTTATTGCGCATAAAA
# B11: GTGCAC_negctrl_site205 (dsDNA)
# DNA 1: TATAATTATTTTTTTCTAAATATTATAAGGTATTCA
# DNA 2: TGAATACCTTATAATATTTAGAAAAAAATAATTATA
# B12: GTGCAC_negctrl_site525 (dsDNA)
# DNA 1: TTTCTAAGAAAAAAAAAAAAAAAAAAAAAGATACAA
# DNA 2: TTGTATCTTTTTTTTTTTTTTTTTTTTTCTTAGAAA
# B13: GTGCAC_site10446 (dsDNA)
# DNA 1: ATGTATCCAATAGGAGTGCATAATTCTATTAACACC
# DNA 2: GGTGTTAATAGAATTATGCACTCCTATTGGATACAT
# B14: GTGCAC_site9445 (dsDNA)
# DNA 1: TCCTTTATTTTTAAAGTGCATATACATGTACATTAT
# DNA 2: ATAATGTACATGTATATGCACTTTAAAAATAAAGGA
# B15: GTGCAC_site9588 (dsDNA)
# DNA 1: AAAAAAAAAAATTCGGTGCAATGTAATTAATGTAAA
# DNA 2: TTTACATTAATTACATTGCACCGAATTTTTTTTTTT
# B16: GTGCAC_negctrl_site419 (dsDNA)
# DNA 1: GAAGGAAAAGATACGATAAAATAAGATATTAATTTA
# DNA 2: TAAATTAATATCTTATTTTATCGTATCTTTTCCTTC
# B17: GTGCAC_site10175 (dsDNA)
# DNA 1: ACTTTTTTGAACAACGTGCACGTATTCATAACAAAA
# DNA 2: TTTTGTTATGAATACGTGCACGTTGTTCAAAAAAGT
# B18: GTGCAC_site9653 (dsDNA)
# DNA 1: GTGTACTTTTAAATAGTGCATTTTACAATAATAAAA
# DNA 2: TTTTATTATTGTAAAATGCACTATTTAAAAGTACAC
# B19: GTGCAC_site9982 (dsDNA)
# DNA 1: ATTGTTATTTATTGTGTGCGCATTAATACATACATA
# DNA 2: TATGTATGTATTAATGCGCACACAATAAATAACAAT
# B20: GTGCAC_negctrl_site471 (dsDNA)
# DNA 1: GATTATCTATCGCTTGAATGAAATGAAATCATGCAA
# DNA 2: TTGCATGATTTCATTTCATTCAAGCGATAGATAATC
# B21: GTGCAC_site9453 (dsDNA)
# DNA 1: TGTTTTATTTTATTAGTGCATTTTTATTTATAATAG
# DNA 2: CTATTATAAATAAAAATGCACTAATAAAATAAAACA
# B22: GTGCAC_site10359 (dsDNA)
# DNA 1: TACACTTGTAATTGCGTGCACGAAGGATATATATAT
# DNA 2: ATATATATATCCTTCGTGCACGCAATTACAAGTGTA
# B23: GTGCAC_site10234 (dsDNA)
# DNA 1: TAAAACAAAAAAAAGATGCACTATTTATTTTATTAT
# DNA 2: ATAATAAAATAAATAGTGCATCTTTTTTTTGTTTTA
# B24: GTGCAC_site9721 (dsDNA)
# DNA 1: TATATATATATATATGTGCACTGGACATATTTTTAT
# DNA 2: ATAAAAATATGTCCAGTGCACATATATATATATATA
# B25: GTGCAC_negctrl_site504 (dsDNA)
# DNA 1: TTTCAAGGATTTAATTTATGGAAACCTTCTTCATTT
# DNA 2: AAATGAAGAAGGTTTCCATAAATTAAATCCTTGAAA
# B26: GTGCAC_site9473 (dsDNA)
# DNA 1: TGTATTAACAAAAAGGTGCGGATATATATAAAAAAT
# DNA 2: ATTTTTTATATATATCCGCACCTTTTTGTTAATACA
# B27: GTGCAC_site10531 (dsDNA)
# DNA 1: AGTAATTATTTTAGAGTGCATAGTTTTTTAATAAAT
# DNA 2: ATTTATTAAAAAACTATGCACTCTAAAATAATTACT
# B28: GTGCAC_negctrl_site410 (dsDNA)
# DNA 1: TTATCTTAATTGTGATTATAAAGATATTCTTTCTAT
# DNA 2: ATAGAAAGAATATCTTTATAATCACAATTAAGATAA
# B29: GTGCAC_site9794 (dsDNA)
# DNA 1: AAAAATATATATTCAGTGCATATAACAAAAATTATA
# DNA 2: TATAATTTTTGTTATATGCACTGAATATATATTTTT
# B30: GTGCAC_site10395 (dsDNA)
# DNA 1: ACTTTAGAAATAGAGGTGCTATTTTTATTACCACAC
# DNA 2: GTGTGGTAATAAAAATAGCACCTCTATTTCTAAAGT
# B31: GTGCAC_site10227 (dsDNA)
# DNA 1: TATACATATTTACAAGTGCATAATATTTTACAAAAA
# DNA 2: TTTTTGTAAAATATTATGCACTTGTAAATATGTATA
# B32: GTGCAC_site10571 (dsDNA)
# DNA 1: GATTATTTCTAAAAAGTGCATATTTAAAAATCTCCT
# DNA 2: AGGAGATTTTTAAATATGCACTTTTTAGAAATAATC
# B33: GTGCAC_site10538 (dsDNA)
# DNA 1: TTATTATAATCATTAGTGCATATATTATTTTTATAT
# DNA 2: ATATAAAAATAATATATGCACTAATGATTATAATAA
# B34: GTGCAC_site10256 (dsDNA)
# DNA 1: AAGGAATGCATATAGGTGCTACACATAAAAATAAAA
# DNA 2: TTTTATTTTTATGTGTAGCACCTATATGCATTCCTT
# B35: GTGCAC_site10065 (dsDNA)
# DNA 1: CTTAAAATATATTTAGTGCATATACTAATATATTAT
# DNA 2: ATAATATATTAGTATATGCACTAAATATATTTTAAG
# B36: GTGCAC_site9975 (dsDNA)
# DNA 1: TGATTCACTATAGTAGTGCATATTATATATATATAT
# DNA 2: ATATATATATATAATATGCACTACTATAGTGAATCA
# B37: GTGCAC_negctrl_site530 (dsDNA)
# DNA 1: AATATATCAAAAATGATGACATAAATATATTAATTT
# DNA 2: AAATTAATATATTTATGTCATCATTTTTGATATATT
# B38: GTGCAC_site10335 (dsDNA)
# DNA 1: ATCAAGCGCAATGTGGTGCGTAAATTTTGTATTATA
# DNA 2: TATAATACAAAATTTACGCACCACATTGCGCTTGAT
# B39: GTGCAC_site10774 (dsDNA)
# DNA 1: ACGTTAAAATATTGGGTGCTAACACAATAAAAATAA
# DNA 2: TTATTTTTATTGTGTTAGCACCCAATATTTTAACGT
# B40: GTGCAC_negctrl_site453 (dsDNA)
# DNA 1: AATAGGAAGACTATTTTGTATTTGATTTTTTATTCC
# DNA 2: GGAATAAAAAATCAAATACAAAATAGTCTTCCTATT
# B41: GTGCAC_site9684 (dsDNA)
# DNA 1: TGTACGAGTCGTAGAGTGCAGTCTGGAGAAGAGTAC
# DNA 2: GTACTCTTCTCCAGACTGCACTCTACGACTCGTACA
# B42: GTGCAC_site9697 (dsDNA)
# DNA 1: GAACATTTATTGTGTGTGCACAATTCTTTTTTAACC
# DNA 2: GGTTAAAAAAGAATTGTGCACACACAATAAATGTTC
# B43: GTGCAC_negctrl_site401 (dsDNA)
# DNA 1: AAAAAAATTAAAAATAAAGAAAAAAAAAAAAAAAAA
# DNA 2: TTTTTTTTTTTTTTTTTCTTTATTTTTAATTTTTTT
# B44: GTGCAC_site10455 (dsDNA)
# DNA 1: AATATTCAATATAAAGTGCATTATTGTGGACCTAAT
# DNA 2: ATTAGGTCCACAATAATGCACTTTATATTGAATATT
# Target: T1, SIP2 D1
# Test: gcPBM; about 25 ug protein; PBS, 1% milk, 0.2 mg/ml BSA, salmon testes DNA, 0.03% Triton X-100
# Conditions: tags: N-terminal GST (pGEX-4T-1), kept; label: surface-attached array probe
row,Binder,binding signal
1,B1,"8.74 ln median PBM intensity, better of two orientations"
2,B2,"9.3 ln median PBM intensity, better of two orientations"
3,B3,"8.5 ln median PBM intensity, better of two orientations"
4,B4,"9.06 ln median PBM intensity, better of two orientations"
5,B5,"6.64 ln median PBM intensity, better of two orientations"
6,B6,"9.16 ln median PBM intensity, better of two orientations"
7,B7,"8.44 ln median PBM intensity, better of two orientations"
8,B8,"6.5 ln median PBM intensity, better of two orientations"
9,B9,"8.95 ln median PBM intensity, better of two orientations"
10,B10,"8.59 ln median PBM intensity, better of two orientations"
11,B11,"6.55 ln median PBM intensity, better of two orientations"
12,B12,"6.64 ln median PBM intensity, better of two orientations"
13,B13,"9.02 ln median PBM intensity, better of two orientations"
14,B14,"8.63 ln median PBM intensity, better of two orientations"
15,B15,"9.5 ln median PBM intensity, better of two orientations"
16,B16,"6.61 ln median PBM intensity, better of two orientations"
17,B17,"8.77 ln median PBM intensity, better of two orientations"
18,B18,"9.56 ln median PBM intensity, better of two orientations"
19,B19,"9.22 ln median PBM intensity, better of two orientations"
20,B20,"6.65 ln median PBM intensity, better of two orientations"
21,B21,"9.34 ln median PBM intensity, better of two orientations"
22,B22,"8.81 ln median PBM intensity, better of two orientations"

row,Binder,binding signal
1,B23,"9.6 ln median PBM intensity, better of two orientations"
2,B24,"9.71 ln median PBM intensity, better of two orientations"
3,B25,"6.53 ln median PBM intensity, better of two orientations"
4,B26,"9.85 ln median PBM intensity, better of two orientations"
5,B27,"8.98 ln median PBM intensity, better of two orientations"
6,B28,"6.56 ln median PBM intensity, better of two orientations"
7,B29,"8.79 ln median PBM intensity, better of two orientations"
8,B30,"8.7 ln median PBM intensity, better of two orientations"
9,B31,"8.65 ln median PBM intensity, better of two orientations"
10,B32,"9.76 ln median PBM intensity, better of two orientations"
11,B33,"8.55 ln median PBM intensity, better of two orientations"
12,B34,"9.67 ln median PBM intensity, better of two orientations"
13,B35,"8.52 ln median PBM intensity, better of two orientations"
14,B36,"9.26 ln median PBM intensity, better of two orientations"
15,B37,"6.58 ln median PBM intensity, better of two orientations"
16,B38,"9.46 ln median PBM intensity, better of two orientations"
17,B39,"8.87 ln median PBM intensity, better of two orientations"
18,B40,"6.62 ln median PBM intensity, better of two orientations"
19,B41,"8.45 ln median PBM intensity, better of two orientations"
20,B42,"8.57 ln median PBM intensity, better of two orientations"
21,B43,"6.66 ln median PBM intensity, better of two orientations"
22,B44,"9.41 ln median PBM intensity, better of two orientations"

# — paper PMC11417369, “DNA sequence and chromatin differentiate sequence-specific transcription factor binding in the human malaria parasite Plasmodium falciparum”
